Like-named read-outs stand apart in the source and are kept apart here.
T1: Cynomolgous monkey (cyno) TF-ECD with His Tag (cynomolgus monkey, UniProt P13726 33-251 (human entry))
T1 construct: also called cyno antigen
T1 chain: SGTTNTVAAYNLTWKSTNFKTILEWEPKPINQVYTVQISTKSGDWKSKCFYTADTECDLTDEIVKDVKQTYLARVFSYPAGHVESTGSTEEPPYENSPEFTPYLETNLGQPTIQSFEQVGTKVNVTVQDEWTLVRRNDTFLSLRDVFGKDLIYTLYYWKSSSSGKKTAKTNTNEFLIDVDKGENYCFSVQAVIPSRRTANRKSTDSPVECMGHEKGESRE


Assays:
[1] = target: T2, recombinant human FcγIIIa receptor (human, UniProt P08637 17-208, limits assumed); experiment: cell-based or functional assay
T2 sequence (P08637 17-208 limits assumed): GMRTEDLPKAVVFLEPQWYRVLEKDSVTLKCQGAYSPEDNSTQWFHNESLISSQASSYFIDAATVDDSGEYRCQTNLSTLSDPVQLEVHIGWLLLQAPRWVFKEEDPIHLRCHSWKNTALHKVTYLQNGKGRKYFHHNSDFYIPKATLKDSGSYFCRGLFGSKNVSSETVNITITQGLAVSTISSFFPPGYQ

[2] = target: Innovin, lyophilized recombinant human tissue factor combined with phospholipids (human, UniProt P13726 33-295, limits assumed); experiment: cell-based or functional assay
[3] = target: T2, recombinant human FcγIIIa receptor; experiment: Fc receptor binding assay (method of a co-pending application or Biacore)
[4] = target: T2, recombinant human FcγIIIa receptor; experiment: Fc receptor binding assay
[5] = target: T1, Cynomolgous monkey (cyno) TF-ECD with …; experiment: TF-ECD binding ELISA, chemiluminescent
[6] = target: T3, recombinant extracellular domain (ECD) of human TF, amino acid 1-219 of the mature chain, C-terminal His6-tag (human, UniProt P13726 33-251); experiment: TF-ECD binding ELISA, chemiluminescent
T3 construct: expressed in a mammalian system; used for ELISA and Biacore; biotinylated by NHS-ester for the Fab ELISA; also called His6-TF-ECD1-219; HumanTF1-219

[7] = target: T1, Cynomolgous monkey (cyno) TF-ECD with …; experiment: Biacore
[8] = target: T4, endogenous human tissue factor on MDA-MB-231 breast cancer cells (human, UniProt P13726 33-295); experiment: cell-based or functional assay
[9] = target: T4, endogenous human tissue factor on …; experiment: cell-based or functional assay; remark: listed apart in the source
[10] = target: T4, endogenous human tissue factor on …; experiment: cell-based or functional assay; remark: listed apart in the source
[11] = target: T3, recombinant extracellular domain (ECD) …; experiment: Biacore
[12] = target: T3, recombinant extracellular domain (ECD) …; experiment: Biacore, KD compared with the reference (0.56 nM, the value of M1 in Table 5)
[13] = target: T3, recombinant extracellular domain (ECD) …; experiment: Biacore; remark: listed apart in the source
[14] = target: T3, recombinant extracellular domain (ECD) …; experiment: Biacore; remark: listed apart in the source
[15] = target: T4, endogenous human tissue factor on …; experiment: FACS on MDA-MB-231 cells
Description: This assay is used to detect the direct binding of antibody to endogenouse human TF expressed in breast cancer cells. Prepare four point titrations of the test mAbs in FACS buffer (1% FBS in PBS) in duplicate. Start a titration at 1,000 ng/ml with 1:4 dilutions. […] Unstained cells and secondary antibody, Cy-5 conjugated Goat anti-Human IgG Fc antibody in FACS buffer 1:200, is used as controls and prepared immediately before use.
Using standard tissue culture technique, rinse adherent MDA-MB-231 cells in culture flask with once with PBS (w/o Ca+2/Mg+2). Lift cells with Versene and count the cells and seed 200,000 cells per well in a polystyrene V-bottom plate. FACS Analysis Protocol: Tissue Factor Binding. Pellet the cells in a Allegra X-15R centrifuge at 450×g for 3 minutes at 4° C., resuspend in FACS Buffer (2% FBS in PBS) and plate 200,000 cells per well in 200 uL. Pellet cells at 450×g for 3 minutes at 4° C. Discard supernatants and add 100 uL/well test or control mAbs to designated wells and incubate on ice or at 4° C. for 1 hour (+/−10 minutes). Pellet cells at 450×g for 3 minutes at 4° C. Discard supernatants and wash cells once in FACS buffer. Resuspend cells in 200 uL/well FACS buffer and pellet cells at 450×g for 3 minutes at 4° C. Discard supernatants and add 100 uL/well secondary antibody to designated wells (triterate), and incubate on ice for 1 hour (+/−10 minutes). Pellet cells at 450×g for 3 minutes at 4° C. Discard supernatants and wash cells 2 times in FACS buffer before resuspending the cells in 200 uL/well FACS Buffer (triterate). Pellet cells at 450×g for 3 minutes at 4° C. Discard supernatant and resuspend cells in 100 uL/well CytoFix Buffer. Analyze reactions by flow cytometry (BD FACSArray). The FlowJo Software is used for FACS data analysis by gating the main population of cells in the unstained control well and applying the gate to the whole data set. The data is exported as a table of the geometric mean fluorescence intensity (MFI) in the red channel for the applied gate.

| Binder | EC50 (read off the curve) [1] [µg/mL] | T½ Max (seconds), coagulation of human plasma [2] [s] | Kd [3] [nM] | fold tighter binding than the unmodified IgG1 M1593 [4] [fold] | EC50 [5] [µg/mL] | EC50 [6] [µg/mL] | Kd [7] [nM] | IC50 (ug/ml), IL-8 induction assay [8] [µg/mL] | % IL-8 Inhibition [9] [%] | IL-8 Induction, Ave % inhibition [10] [%] | Kd [11] [nM] | fold lower KD than the murine parent MAb [12] [fold] | fold lower KD than the murine parent MAb (M1) [13] [fold] | Kd [14] [nM] | koff [14] [s⁻¹] | kon [14] [M⁻¹ s⁻¹] | Whole Cell Binding, Ave % [15] [%] |
| --- | --- | --- | --- | --- | --- | --- | --- | --- | --- | --- | --- | --- | --- | --- | --- | --- | --- |
| M1593 (wild-type human IgG1/kappa constant domains) (antibody, produced in unmodified CHO; also called H171/L3; copies: 2 + 2) heavy: not shown light: DIVMTQTPLSLPVTPGEPASISCKSSQSLLSSGNQKNYLTWYLQKPGQSPQLLIYWASTRESGVPDRFSGSGSGTDFTLKISRVEAEDVGVYYCQNDYTYPLTFGQGTKLEIKRTVAAPSVFIFPPSDEQLKSGTASVVCLLNNFYPREAKVQWKVDNALQSGNSQESVTEQDSKDSTYSLSSTLTLSKADYEKHKVYACEVTHQGLSSPVTKSFNRGEC | ~0.02 | 164 | 210 |  |  |  |  |  |  |  |  |  |  |  |  |  |  |
| M1593-LF (hIgG1 produced in host subline producing reduced fucosylation in glycans) (antibody, glycan with low fucose content (less than 10% fucosylated), same chains as M1593 (IgG1/Kappa), made in a low-fucose CHO subline; copies: 2 + 2) heavy: not shown light: DIVMTQTPLSLPVTPGEPASISCKSSQSLLSSGNQKNYLTWYLQKPGQSPQLLIYWASTRESGVPDRFSGSGSGTDFTLKISRVEAEDVGVYYCQNDYTYPLTFGQGTKLEIKRTVAAPSVFIFPPSDEQLKSGTASVVCLLNNFYPREAKVQWKVDNALQSGNSQESVTEQDSKDSTYSLSSTLTLSKADYEKHKVYACEVTHQGLSSPVTKSFNRGEC | ~0.006 |  | 12 | 18 |  |  |  |  |  |  |  |  |  |  |  |  |  |
| M59 (antibody, V domains shown, FR4 is its own entry; also called H22/L3) VH: EVQLVQSGAEVKKPGESLRISCKGSGYTFITYWIEWVRQMPGKGLEWMGDILPGSGSTNYSPSFQGHVTISADKSISTAYLQWSSLKASDTAMYYCARSGYYGNSGFAYWGQGTLVTVSS VL: DIVMTQTPLSLPVTPGEPASISCKSSQSLLSSGNQKNYLTWYLQKPGQSPQLLIYWASTRESGVPDRFSGSGSGTDFTLKISRVEAEDVGVYYCQNDYTYPLTFGQGTKLEIK |  | 169 |  |  | 0.0187 | 0.0088 | 1.28 | 0.382 | 83.8 | 103 |  |  |  |  |  |  |  |

Further lines, results first:

| EC50 (read off the curve) [1] [µg/mL] | T½ Max (seconds), coagulation of human plasma [2] [s] | Kd [3] [nM] | fold tighter binding than the unmodified IgG1 M1593 [4] [fold] | EC50 [5] [µg/mL] | EC50 [6] [µg/mL] | Kd [7] [nM] | IC50 (ug/ml), IL-8 induction assay [8] [µg/mL] | % IL-8 Inhibition [9] [%] | IL-8 Induction, Ave % inhibition [10] [%] | Kd [11] [nM] | fold lower KD than the murine parent MAb [12] [fold] | fold lower KD than the murine parent MAb (M1) [13] [fold] | Kd [14] [nM] | koff [14] [s⁻¹] | kon [14] [M⁻¹ s⁻¹] | Whole Cell Binding, Ave % [15] [%] | Binder |
| --- | --- | --- | --- | --- | --- | --- | --- | --- | --- | --- | --- | --- | --- | --- | --- | --- | --- |
| ~0.005 |  | 5 | 40 |  |  |  |  |  |  |  |  |  |  |  |  |  | M1593-DE (hIgG1 with S239D/I332E) (antibody, copies: 2 + 2) heavy: not shown light: DIVMTQTPLSLPVTPGEPASISCKSSQSLLSSGNQKNYLTWYLQKPGQSPQLLIYWASTRESGVPDRFSGSGSGTDFTLKISRVEAEDVGVYYCQNDYTYPLTFGQGTKLEIKRTVAAPSVFIFPPSDEQLKSGTASVVCLLNNFYPREAKVQWKVDNALQSGNSQESVTEQDSKDSTYSLSSTLTLSKADYEKHKVYACEVTHQGLSSPVTKSFNRGEC |
|  | 186 |  |  | 0.0241 | 0.0083 | 1.71 |  | 107 | 112 | 0.21 | 2.5 | 2.5 | 0.2 | 1.9e-05 | 94100 | 111 | M61 (antibody, V domains shown, complete MAb; FR4 is its own entry; also called H22/L5) VH: EVQLVQSGAEVKKPGESLRISCKGSGYTFITYWIEWVRQMPGKGLEWMGDILPGSGSTNYSPSFQGHVTISADKSISTAYLQWSSLKASDTAMYYCARSGYYGNSGFAYWGQGTLVTVSS VL: DIVMTQTPLSLSVTPGQPASISCKSSQSLLSSGNQKNYLTWYLQKPGQPPQLLIYWASTRESGVPDRFSGSGSGTDFTLKISRVEAEDVGVYYCQNDYTYPLTFGQGTKLEIK |
| ~0.07 | 173 |  |  | 0.0173 | 0.0117 | 1.34 | 0.527 | 96.1 | 106 | 0.56 |  |  |  |  |  | 101 | M1, 10H10 mouse-human chimera (antibody, V domains shown, also called H13/L1; parent chimeric antibody) VH: QVHLQQSGAELMKPGASVKISCKASGYTFITYWIEWVKQRPGHGLEWIGDILPGSGSTNYNENFKGKATFTADSSSNTAYMQLSSLTSEDSAVYYCARSGYYGNSGFAYWGQGTLVTVSA VL: DIVMTQSPSSLTVTAGEKVTMSCKSSQSLLSSGNQKNYLTWYQQIPGQPPKLLIYWASTRESGVPDRFTGSGSGTDFTLTINSVQAEDLAVYYCQNDYTYPLTFGAGTKLELK |

From US20120237528A1 (Janssen / Centocor, published 2012)
